Test: mouse liver sections 10 min after injection, anti-FX/CD68 staining
Conditions: glycan lost; control: pd-FX

Factor X (FX): PNGase F (N-degly-FX)
localisation_or_trafficking: changes, the localization of FX was predominantly to hepatocytes

From publication PMC3458019
